From US20240209099A1 (SUZHOU TRANSCENTA THERAPEUTICS, published 2024)
Substitutions are numbered along the chain they refer to. Each block holds one binder with its values, some of them ahead of it.

Legend:
[1] = molecular target: T1, Recombinant Human VEGFR2/KDR Protein, His tag (hVEGFR2-his) (human, UniProt P35968 20-764); test: ELISA, hVEGFR2-his coated
T1 construct: Expressed in HEK293, bought from ACRO Biosystems; also called human VEGFR2-his; Human VEGFR2/KDR-His
Protocol: Same protocol of Example 2 antibody screening by ELISA assay. Briefly, 0.5 μg/ml hVEGFR2-his was coated and serially diluted purified antibodies would bind to coated antigen. Using HRP conjugated goat anti-mouse Fc antibody could detect binding signals of each antibody.
The hybridoma antibodies have similar affinity to human.

[2] = molecular target: T1, Recombinant Human VEGFR2/KDR Protein, …; test: SPR (Biacore), antibody captured by anti-Fc, antigen 2.5-80 nM
Protocol: A CM5 sensor chip was activated in each flow cell by 7-min injection (10 μl/min) of freshly prepared 1:1 50 mM N-hydroxysuccinimide (NHS): 200 mM 1-ethyl-3-(3-dimethylaminopropyl)-carbodiimide (EDC). Then anti-human Fc antibody (GE Healthcare) in a concentration of 10 μg/ml in 10 mM sodium acetate buffer PH 5.0 was injected onto the activated chip at 10 μl/min (HBS-EP running buffer: 10 mM HEPES, 150 mM NaCl, 3.4 mM EDTA, 0.005% surfactant P20, pH 7.4). The remaining active coupling sites were blocked by 7 min injection of 1M ethanolamine at 10 μl/min. The immobilization level of each flow cell is ˜9000RU. Antibodies were captured in FC2 by anti-human Fc IgG or anti-mouse Fc (GE Healthcare) to 200˜300RU. FC1 was used as the reference cell. Antigen was injected at varying concentrations (2.5 nM, 5 nM, 10 nM, 20 nM, 40 nM and 80 nM) after capture of antibody. The association time for antibody binding antigen is 180s. Surface Regeneration condition is 120s at 10 μl/min in Gly pH1.5. The signals with captured antibody subtracted from those without captured antibody were calculated with Biacore X100 evaluation software ver. 2.0 (Biacore).

[3] = molecular target: T2, human VEGFR2 on HUVEC cells (human, UniProt P35968 20-1356); test: flow cytometry on HUVEC cells, percent shifted cells (Shift%), anti-mouse IgG-PE
T2 construct: also called hVEGFR2 on HUVEC
Protocol: Log phase HUVEC cells were collected, counted and resuspended in FACS buffer (5% BSA+PBS). 2×10∧5 cells were added to each tube and then washed once with PBS (1500 rpm, 5 mins, RT). Then […] serial diluted VEGFR2 antibodies purified from hybridoma supernatant in FACS buffer were added into corresponding tubes and were incubated at 4° C. for 1 hr. The cells were then washed twice with 1 ml PBS, followed by adding 100 μl/tube of 2nd antibody (1:400 anti-mIgG (H+L)-PE, Cell signaling #8887) in FACS buffer. The cells were incubated at 4° C. for 0.5 hr and then washed twice with PBS, followed by resuspending cells in 600 μl PBS for each sample. The cells were then transferred into FACS tube and the bindings of the antibodies to the cells were detected using flow cytometry (BD Accuri C6) (see FIG. 3).
The percentage of positive binding cells was calculated and fit by Graphpad Prism Software.

[4] = molecular target: T1, Recombinant Human VEGFR2/KDR Protein, …; test: competition ELISA on coated hVEGFR2-his: hybridoma antibody titrated against 100 ng/ml chimeric 002C, anti-human IgG Fc-HRP
[5] = molecular target: T1, Recombinant Human VEGFR2/KDR Protein, …; test: competition ELISA on coated hVEGFR2-his: hybridoma antibody titrated against 100 ng/ml chimeric 054C, anti-human IgG Fc-HRP
[6] = molecular target: T1, Recombinant Human VEGFR2/KDR Protein, …; test: competition ELISA: hVEGFR2-his coated (1 ug/ml), antibody titrated, then 0.3 ug/ml hVEGF-A added and bound VEGF-A detected; blocked ligand hVEGF-A
Protocol: High-binding clear polystyrene 96 well plates were coated with 100 μl/well of 1 μg/ml hVEGFR2-his overnight at 4° C. After washing and blocking, serial diluted antibodies (from 10 μg/ml to 0.0006 μg/ml) were added and incubate for 1 hour at RT. 0.3 μg/ml hVEGF-A (Acrobiosystem, Cat #VE5-H4210) were added and incubated for 2 hour at RT. Then 100 μl/well of 0.25 μg/ml Biotinylated Rabbit Anti-human VEGF-A (Peprotech, Cat #400-P10Bt) was then added for detecting bound VEGF-A. Then 100 μl/well of a solution of HRP conjugated Neutravidin antibody (Pierce, Cat #31001) and TMB were added sequentially. Finally, reaction was terminated using 0.64M H₂SO₄ and plates were read at 450 nm.

human VEGFR1 protein = molecular target: T3, human VEGFR1 protein (human, UniProt P17948 27-756); test: ELISA, 1 µg/ml antigen coated, 1 µg/ml antibody
T3 construct: also called Sino Biological 10136-H08H
Protocol: (§1) Briefly, 1 μg/ml human VEGFR1 (Sino Biological, cat #10136-H08H), VEGFR2 (Acrobiosystem, cat #KDR-H5227) and VEGFR3 (Sino Biological, cat #10806-H08H) protein were coated overnight at 4° C. 1 μg/ml humanized antibodies (48-H3L1 and 54-H2L1, produced in CHO cells or Ramucirumab from Eli Lilly Germany, lot #20150819) were added for binding to coated antigen. Secondary antibody HRP conjugated goat anti-human Fc antibody were added for detection of binding signal.

human VEGFR3 protein = molecular target: T4, human VEGFR3 protein (human, UniProt P35916 25-776); test: ELISA, 1 µg/ml antigen coated, 1 µg/ml antibody
T4 construct: also called Sino Biological 10806-H08H
T4 sequence (looked up): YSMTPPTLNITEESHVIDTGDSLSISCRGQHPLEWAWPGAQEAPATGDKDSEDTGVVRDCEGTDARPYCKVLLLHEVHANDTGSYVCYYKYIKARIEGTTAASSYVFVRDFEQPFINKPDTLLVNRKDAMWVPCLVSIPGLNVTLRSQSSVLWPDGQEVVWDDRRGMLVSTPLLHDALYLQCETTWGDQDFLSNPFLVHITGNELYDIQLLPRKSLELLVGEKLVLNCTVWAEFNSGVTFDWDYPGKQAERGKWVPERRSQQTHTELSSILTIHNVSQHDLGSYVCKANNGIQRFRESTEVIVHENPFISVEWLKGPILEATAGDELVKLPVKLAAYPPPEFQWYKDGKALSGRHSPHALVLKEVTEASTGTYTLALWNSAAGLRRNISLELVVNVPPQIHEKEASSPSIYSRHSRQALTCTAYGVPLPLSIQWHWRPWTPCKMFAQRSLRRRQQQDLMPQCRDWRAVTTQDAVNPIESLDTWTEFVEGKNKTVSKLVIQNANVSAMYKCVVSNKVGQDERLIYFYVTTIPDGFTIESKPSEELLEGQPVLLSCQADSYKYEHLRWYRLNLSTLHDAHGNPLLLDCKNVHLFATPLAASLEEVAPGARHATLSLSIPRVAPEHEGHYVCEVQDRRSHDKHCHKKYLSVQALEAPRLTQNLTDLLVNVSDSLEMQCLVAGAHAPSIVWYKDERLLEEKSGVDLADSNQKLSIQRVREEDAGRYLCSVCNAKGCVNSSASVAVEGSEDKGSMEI
Protocol: as §1

[7] = molecular target: T2, human VEGFR2 on HUVEC cells; test: flow cytometry on HUVEC cells, MFI, anti-human IgG (H+L)-PE
Protocol: Same methods with Example 11. Briefly, Log phase HUVEC cells were collected and added to each tube. Then 100 μl/tube serial diluted humanized antibodies in FACS buffer were added and kept at 4° C. for 1 hr. Binding of antibodies to HUVEC was detected by PE signal of the 2nd antibody (anti-hIgG (H+L)-PE), which was added after the 1st antibodies. (see FIG. 15).

[8] = molecular target: T1, Recombinant Human VEGFR2/KDR Protein, …; test: ELISA, hVEGFR2-his coated, anti-human Fc-HRP; antibody made in 293T cells
Protocol: Same protocol of Example 4 except using HRP conjugated goat anti-human Fc antibody as secondary antibody. Binding to hVEGFR2-his and rhesus VEGFR2-his (Acrobiosystems, Cat #VE2-C52H3) were also analyzed head-to-head.
Same protocol of Example 9.

[9] = molecular target: T1, Recombinant Human VEGFR2/KDR Protein, …; test: ELISA, human VEGFR2-his coated, anti-human Fc-HRP; antibody made in CHO cells
[10] = molecular target: T5, Recombinant Rhesus macaque VEGFR2/KDR Protein, His tag (rhesus macaque); test: ELISA, rhesus VEGFR2-his coated, anti-human Fc-HRP; antibody made in CHO cells
T5 construct: Expressed in HEK293, bought from ACRO Biosystems; also called rhesus VEGFR2-his; rhesus VEGFR2
T5 chain: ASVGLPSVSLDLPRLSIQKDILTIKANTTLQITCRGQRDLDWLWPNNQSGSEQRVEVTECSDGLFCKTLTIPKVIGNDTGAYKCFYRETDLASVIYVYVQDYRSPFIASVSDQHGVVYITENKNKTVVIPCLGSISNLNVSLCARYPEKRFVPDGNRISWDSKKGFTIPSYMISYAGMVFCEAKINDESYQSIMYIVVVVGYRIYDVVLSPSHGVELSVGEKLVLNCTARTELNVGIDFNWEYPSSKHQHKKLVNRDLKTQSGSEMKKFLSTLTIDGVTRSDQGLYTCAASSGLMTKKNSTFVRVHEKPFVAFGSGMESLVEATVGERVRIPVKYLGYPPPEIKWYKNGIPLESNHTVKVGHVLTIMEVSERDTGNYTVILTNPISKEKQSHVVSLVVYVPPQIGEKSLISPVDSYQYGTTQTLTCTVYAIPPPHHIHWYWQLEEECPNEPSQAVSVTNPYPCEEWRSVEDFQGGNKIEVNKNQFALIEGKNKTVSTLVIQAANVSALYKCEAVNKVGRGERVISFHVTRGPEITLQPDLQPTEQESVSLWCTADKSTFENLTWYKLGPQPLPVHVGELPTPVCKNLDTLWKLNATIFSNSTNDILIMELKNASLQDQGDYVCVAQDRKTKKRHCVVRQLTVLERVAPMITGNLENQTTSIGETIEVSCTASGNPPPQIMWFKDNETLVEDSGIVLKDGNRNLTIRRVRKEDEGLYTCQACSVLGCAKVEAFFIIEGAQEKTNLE

[11] = molecular target: T1, Recombinant Human VEGFR2/KDR Protein, …; test: competition ELISA: VEGF-A coated (0.25 ug/ml), antibody titrated together with 1 ug/ml human VEGFR2, detection with mouse anti-VEGFR2 serum and anti-mouse Fc-HRP; blocked ligand VEGF-A
Protocol: (§2) For this assay, 0.25 μg/ml VEGF-A was coated on ELISA plate before a mixture of chimeric antibodies and VEGFR2 were added. To detect free VEGF-A (not bind to VEGFR2), 1:1000 diluted mouse serum (mouse previous immunized with human VEGFR2) were added and HRP conjugated goat anti-mouse Fc antibody was used as secondary antibody.
(§3) Same protocol of Example 10. Briefly, 0.25 μg/ml VEGF-A was coated overnight at 4° C. After blocking, serial diluted 54-H2L1, 48-H3L1, Ramucirumab and 1 μg/ml human VEGFR2 or rhesus VEGFR2 were added at the same time for 2 hour-incubation. After wash, mouse serum containing polyclone VEGFR2 antibody and HRP conjugated goat anti-mouse Fc antibody were added for detection of free VEGF-A coated on the plates (see FIGS. 13A and 13B).

[12] = molecular target: T5, Recombinant Rhesus macaque VEGFR2/KDR …; test: competition ELISA: VEGF-A coated (0.25 ug/ml), antibody titrated together with 1 ug/ml rhesus VEGFR2, detection with mouse anti-VEGFR2 serum and anti-mouse Fc-HRP; blocked ligand VEGF-A
Protocol: as §2, §3

T3 sequence (P17948 27-756 limits assumed): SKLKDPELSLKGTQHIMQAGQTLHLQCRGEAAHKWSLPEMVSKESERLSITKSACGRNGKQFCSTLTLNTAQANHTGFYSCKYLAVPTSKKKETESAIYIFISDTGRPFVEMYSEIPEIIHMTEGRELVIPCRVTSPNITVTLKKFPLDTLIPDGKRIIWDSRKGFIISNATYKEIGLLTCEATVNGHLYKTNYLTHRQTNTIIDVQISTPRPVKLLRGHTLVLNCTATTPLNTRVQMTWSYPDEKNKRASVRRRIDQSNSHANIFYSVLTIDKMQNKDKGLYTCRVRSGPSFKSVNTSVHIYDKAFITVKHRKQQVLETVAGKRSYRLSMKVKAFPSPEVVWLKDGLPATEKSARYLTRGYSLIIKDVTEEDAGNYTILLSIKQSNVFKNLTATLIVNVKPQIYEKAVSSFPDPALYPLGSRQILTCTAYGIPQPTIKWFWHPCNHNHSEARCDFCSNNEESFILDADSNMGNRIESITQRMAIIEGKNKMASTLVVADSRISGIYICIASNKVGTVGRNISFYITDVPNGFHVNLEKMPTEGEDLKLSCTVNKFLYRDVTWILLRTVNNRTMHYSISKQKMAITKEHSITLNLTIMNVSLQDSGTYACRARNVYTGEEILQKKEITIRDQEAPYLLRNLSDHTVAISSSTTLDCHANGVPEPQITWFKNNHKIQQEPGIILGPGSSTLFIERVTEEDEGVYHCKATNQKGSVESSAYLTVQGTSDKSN

EC50 [1]: 0.0232 µg/mL
Kd [2]: < 1 pM
koff [2]: < 1e-07 s⁻¹
kon [2]: 1.14e+06 M⁻¹ s⁻¹
EC50 [3]: 0.024 µg/mL
IC50 (read off the curve) [4]: ~0.07 µg/mL
IC50 (read off the curve) [5]: ~0.2 µg/mL
IC50 [6]: 0.0416 µg/mL
B1: 048 (mouse hybridoma antibody) (antibody, V domains shown)
VH: EVQLVESGGDLVKPGGSLKLSCAASGFTFSMYGMSWVRQTPDKRLEWVASISIGGSYTYYADSVEGRFTISRENAKNTLFLQMNSLKSEDTALYYCAREMDGNYDYWGHGTTLTVSS
VL: DVMITQDELSNPVTFGESVSISCRSSKSLLYKDGKTYLNWFLQRPGQSPQLLIYLMSTRASGVSDRFSGSGSGTDFTLEISRVKAEDVGIYYCQQLVEYPFTFGSGTKLEIK
notes: Mouse antibody purified from hybridoma; also called mAb048; 5G4

binding result (human VEGFR1 protein): no binding (tested: 1 µg/ml)
binding result (human VEGFR3 protein): no binding (tested: 1 µg/ml)
EC50 (read off the curve) [7]: ~0.2 µg/mL
EC50 [8]: 0.0205 µg/mL
EC50 [9]: 0.00899 µg/mL
EC50 [10]: 0.00864 µg/mL
IC50 [11]: 0.727 µg/mL
IC50 [12]: 0.833 µg/mL
B2: 48-H3L1 (humanized Mab48) (antibody, human IgG1, V domains shown)
VH: B1 VH with D10G, K19R, T40A, D42G, E65K, E73D, F80Y, K87R, S88A, L93V
VL: B1 VL with V2I, M3V, N11L, E79K, K84E
notes: also called 48-H3L1 (CHO)
